Where a chain is given by its changes, count along the chain named.
B1: Nanog OS site probe (dsDNA)
DNA 1: GTTACTCTGCAGCTACTTTTGCATTACAATGGCCTTGGTGAGACTGG
DNA 2: CCAGTCTCACCAAGGCCATTGTAATGCAAAAGTAGCTGCAGAGTAAC
B2: Klf4-E1 OS site probe (dsDNA)
DNA 1: B1 DNA 1 with T17C, T25A, A26T, T30A, G31T
DNA 2: B1 DNA 2 with C17A, A18T, T22A, A23T, A31G

Key:
OCT4;SOX2 = OCT4;SOX2 (human;human, UniProt Q01860;P48431 1-360;1-317, |); assay: EMSA; 19 nM OCT4, 16 nM SOX2; high occupancy; 12.5 mM K-Hepes pH 7.6, 50 mM NaCl, 1 mM MgCl2, 10% glycerol, 0.1% NP-40, 0.1 mg/mL BSA, 1 mM DTT, 1 ug/uL poly dG:dC, 2 nM probe, 30 C 15 min; 4% acrylamide gel, 0.5X TGE; conditions: protein: recombinant;recombinant; tags: 6xHis (pSKB3-6H-TEV);6xHis (pSKB3-6H-TEV); copies: 1;1; label: Cy5 on strand 2 (extended primer S1); blunt
OCT4 = OCT4 (human, UniProt Q01860 1-360); assay: EMSA; 19 nM OCT4; OCT4-only band is the majority of shifted DNA in the OCT4 + SOX2 reaction; 12.5 mM K-Hepes pH 7.6, 50 mM NaCl, 1 mM MgCl2, 10% glycerol, 0.1% NP-40, 0.1 mg/mL BSA, 1 mM DTT, 1 ug/uL poly dG:dC, 2 nM probe, 30 C 15 min; 4% acrylamide gel, 0.5X TGE; conditions: protein: recombinant; tags: 6xHis (pSKB3-6H-TEV); label: Cy5 on strand 2 (extended primer S1); blunt
Sequence of OCT4 (Q01860 whole entry): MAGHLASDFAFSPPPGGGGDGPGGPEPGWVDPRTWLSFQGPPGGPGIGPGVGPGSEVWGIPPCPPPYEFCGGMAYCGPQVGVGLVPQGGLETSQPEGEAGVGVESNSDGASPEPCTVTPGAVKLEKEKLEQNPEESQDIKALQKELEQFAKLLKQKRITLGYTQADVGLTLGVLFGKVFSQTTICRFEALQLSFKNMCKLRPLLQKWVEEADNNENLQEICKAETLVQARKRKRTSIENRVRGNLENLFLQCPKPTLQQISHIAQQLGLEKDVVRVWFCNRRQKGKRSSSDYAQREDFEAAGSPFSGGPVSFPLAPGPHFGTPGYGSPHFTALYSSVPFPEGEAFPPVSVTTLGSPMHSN

Sequence of OCT4;SOX2 (Q01860 whole entry, chain 1 of 2): as the sequence (Q01860 whole entry) above
Sequence of OCT4;SOX2 (P48431 whole entry, chain 2 of 2): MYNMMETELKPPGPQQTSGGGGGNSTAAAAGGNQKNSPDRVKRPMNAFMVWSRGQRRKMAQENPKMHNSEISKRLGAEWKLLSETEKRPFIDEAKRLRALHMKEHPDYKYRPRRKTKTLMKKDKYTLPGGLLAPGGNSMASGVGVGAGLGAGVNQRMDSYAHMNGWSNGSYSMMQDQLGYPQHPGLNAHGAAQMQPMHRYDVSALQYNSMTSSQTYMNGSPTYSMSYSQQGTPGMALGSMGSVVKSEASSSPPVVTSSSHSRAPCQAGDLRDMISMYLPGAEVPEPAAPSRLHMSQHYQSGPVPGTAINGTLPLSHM

Binder	binding result (OCT4;SOX2)	binding result (OCT4)
B1	binds	–
B2	–	binds
